How the values were obtained:
[1] = biological target: KLK1-70Lm (KLK1 with D75, D76 and E77 replaced by arginines) (human); experiment: kinetics of protease inhibition (discontinuous assay); 1 µM rKAL preincubated 5 min with LMWH (0-2.5 mg/mL) at room temperature, then 10 nM KLK1-70Lm; kobs plotted against LMWH
[2] = biological target: KLK1-70Lm (KLK1 with D75, D76 and E77 replaced by arginines) (human); experiment: kinetics of protease inhibition (discontinuous assay); pseudo-first-order; 10 nM protease with 100-500 nM kallistatin variant, PBS, 0.1% PEG 8000, 22 ± 1 °C; apparent second-order rate constant kapp from kobs; k2 = kapp × SI
[3] = biological target: KLK1-99Lm (KLK1 with nine residues of its 99 loop deleted) (human) (UniProt P06870); experiment: as above

fold acceleration of the inhibition rate with LMWH against no heparin [1]: 5 fold
k2 (second-order rate constant) [2]: 1800 M⁻¹ s⁻¹
second-order association rate constant [3]: 200 M⁻¹ s⁻¹
B1: Recombinant human kallistatin (rKAL), wild type (natural protein)
chain: GSPSLKIAPANADFAFRFYYLIASETPGKNIFFSPLSISAAYAMLSLGACSHSRSQILEGLGFNLTELSESDVHRGFQHLLHTLNLPGHGLETRVGSALFLSHNLKFLAKFLNDTMAVYEAKLFHTNFYDTVGTIQLINDHVKKETRGKIVDLVSELKKDVLMVLVNYIYFKALWEKPFISSRTTPKDFYVDENTTVRVPMMLQDQEHHWYLHDRYLPCSVLRMDYKGDATVFFILPNQGKMREIEEVLTPEMLMRWNNLLRKRNFYKKLELHLPKFSISGSYVLDQILPRLGFTDLFSKWADLSGITKQQKLEASKSFHKATLDVDEAGTEAAAATSFAIKFFSAQTNRHILRFNRPFLVVIFSTSTQSVLFLGKVVDPTKP

From publication PMC7356578
